Data reported in US20170101442A1 (CURATORS OF THE UNIVERSITY OF MISSOURI, published 2017).
Ends that are not written are not given here.

How the values were obtained:
[1] = biological target: T1, insulin-like growth factor 2 receptor (IGF2R) on human hepatic stellate cells LX-2 (human, UniProt P11717 41-2491); test: flow cytometry, 5-FAM labelled peptide titrated on LX-2 cells, 1 h at 37 C; apparent Kd
T1 construct: Endogenous IGF2R on LX-2 cells; also called LX-2 cells; LX 2 cells
Method: (§1) The cells were incubated with 5 FAM labeled peptides at different concentrations for 1 h at 37° C. The labeled cells were detected by flow cytometry, and the apparent Kd value was calculated using GraphPad Prism. […] The result is consistent with the cellular uptake result depicted in FIGS. 7A-7B, 8A-8G, and 9A-9G.

[2] = biological target: T1, insulin-like growth factor 2 receptor …; test: flow cytometry, labelled dimeric peptide titrated on LX-2 cells; apparent Kd
Method: as §1

[3] = biological target: T1, insulin-like growth factor 2 receptor …; test: flow cytometry on LX-2 cells; apparent Kd of the dimer against that of the monomer
Method: as §1

T1 sequence (P11717 41-2491 R1619G limits assumed): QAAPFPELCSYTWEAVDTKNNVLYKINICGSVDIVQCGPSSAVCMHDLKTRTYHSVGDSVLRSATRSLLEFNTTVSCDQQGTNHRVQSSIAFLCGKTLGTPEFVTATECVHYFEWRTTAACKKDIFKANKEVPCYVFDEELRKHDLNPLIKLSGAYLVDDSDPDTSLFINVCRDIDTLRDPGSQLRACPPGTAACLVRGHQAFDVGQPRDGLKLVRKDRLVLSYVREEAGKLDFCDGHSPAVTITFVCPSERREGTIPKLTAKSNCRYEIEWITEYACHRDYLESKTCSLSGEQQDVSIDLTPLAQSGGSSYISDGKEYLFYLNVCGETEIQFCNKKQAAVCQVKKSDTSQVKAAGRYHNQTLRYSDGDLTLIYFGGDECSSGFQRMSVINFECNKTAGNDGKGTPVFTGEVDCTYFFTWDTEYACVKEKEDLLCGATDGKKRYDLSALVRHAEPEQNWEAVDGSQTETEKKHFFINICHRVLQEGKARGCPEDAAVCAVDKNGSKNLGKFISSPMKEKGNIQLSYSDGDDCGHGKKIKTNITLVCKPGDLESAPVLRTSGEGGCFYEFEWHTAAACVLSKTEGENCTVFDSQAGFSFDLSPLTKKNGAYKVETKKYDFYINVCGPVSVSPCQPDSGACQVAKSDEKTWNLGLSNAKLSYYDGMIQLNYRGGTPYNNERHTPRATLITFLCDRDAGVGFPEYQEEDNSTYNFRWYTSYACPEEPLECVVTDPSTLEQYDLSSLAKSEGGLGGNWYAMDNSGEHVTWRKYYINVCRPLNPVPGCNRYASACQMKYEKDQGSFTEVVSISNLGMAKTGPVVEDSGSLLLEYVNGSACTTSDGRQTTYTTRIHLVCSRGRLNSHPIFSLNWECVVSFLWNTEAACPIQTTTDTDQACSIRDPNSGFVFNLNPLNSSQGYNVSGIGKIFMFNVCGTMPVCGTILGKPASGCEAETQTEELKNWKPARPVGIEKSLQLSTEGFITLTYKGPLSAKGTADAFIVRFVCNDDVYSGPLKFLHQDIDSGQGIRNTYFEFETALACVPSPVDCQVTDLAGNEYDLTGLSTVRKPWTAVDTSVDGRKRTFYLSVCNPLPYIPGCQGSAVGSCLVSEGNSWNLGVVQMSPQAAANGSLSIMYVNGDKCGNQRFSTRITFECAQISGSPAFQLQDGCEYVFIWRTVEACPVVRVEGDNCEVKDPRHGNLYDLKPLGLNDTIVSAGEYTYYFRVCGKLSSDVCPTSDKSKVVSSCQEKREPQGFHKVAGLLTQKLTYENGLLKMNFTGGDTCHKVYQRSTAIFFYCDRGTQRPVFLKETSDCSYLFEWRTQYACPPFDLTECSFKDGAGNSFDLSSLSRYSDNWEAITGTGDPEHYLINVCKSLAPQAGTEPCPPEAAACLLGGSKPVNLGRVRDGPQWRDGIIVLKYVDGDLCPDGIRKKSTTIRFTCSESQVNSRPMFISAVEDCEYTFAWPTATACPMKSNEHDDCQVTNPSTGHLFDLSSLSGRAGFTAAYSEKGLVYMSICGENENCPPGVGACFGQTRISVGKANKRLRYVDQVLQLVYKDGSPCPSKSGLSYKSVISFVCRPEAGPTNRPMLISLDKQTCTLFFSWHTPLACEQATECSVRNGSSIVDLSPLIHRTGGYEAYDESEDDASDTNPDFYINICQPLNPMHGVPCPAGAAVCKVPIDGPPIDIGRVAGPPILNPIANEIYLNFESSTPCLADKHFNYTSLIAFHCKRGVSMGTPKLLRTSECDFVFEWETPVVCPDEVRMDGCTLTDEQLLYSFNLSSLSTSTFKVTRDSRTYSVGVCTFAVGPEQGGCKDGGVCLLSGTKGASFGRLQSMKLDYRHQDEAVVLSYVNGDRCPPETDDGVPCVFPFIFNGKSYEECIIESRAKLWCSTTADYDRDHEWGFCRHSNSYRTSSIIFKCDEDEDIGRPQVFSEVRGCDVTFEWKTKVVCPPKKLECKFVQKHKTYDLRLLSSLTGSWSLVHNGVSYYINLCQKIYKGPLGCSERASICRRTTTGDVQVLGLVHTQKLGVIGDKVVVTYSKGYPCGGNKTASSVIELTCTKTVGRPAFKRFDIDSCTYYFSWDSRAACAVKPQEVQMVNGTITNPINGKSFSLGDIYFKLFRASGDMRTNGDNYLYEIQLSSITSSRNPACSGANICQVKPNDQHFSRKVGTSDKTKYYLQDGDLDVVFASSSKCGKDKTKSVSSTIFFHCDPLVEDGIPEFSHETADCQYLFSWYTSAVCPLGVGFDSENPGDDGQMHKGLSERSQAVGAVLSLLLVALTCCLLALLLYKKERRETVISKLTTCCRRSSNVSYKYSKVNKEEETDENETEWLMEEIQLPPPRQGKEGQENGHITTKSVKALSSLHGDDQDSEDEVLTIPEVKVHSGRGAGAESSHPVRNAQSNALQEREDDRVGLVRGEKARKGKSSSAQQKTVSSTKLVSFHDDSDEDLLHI

Row | Kd [1] [µM] | Kd [2] [µM] | fold lower apparent Kd against monomeric peptide 431 [3] [fold] | Binder
1 | 6.19 | – | – | VHWDFRQWWQPS (also: 5-FAM label, position not given here) [Peptide-431]
2 | – | 0.701 | ~9 | VHWDFRQWWQPS (also: dimer: two copies linked via a lysine, imaging agent coupled to the linker) [dimeric peptide 431]
